Legend:
[1] = test system: monocyte/macrophage infiltration into lung tissues (CD68); assay: IHC staining of CD68 in lung tissues of PAH model; format: in vivo, rat; details: PAH rats, 1 mpk or 10 mpk, 3 weeks
Protocol: The collected lungs were fixed in paraformaldehyde (PFA) according to the ordinary procedure, and then paraffin-infiltrated and embedded through washing, dehydration, and clearing. The rat lung tissue paraffin blocks were micro-sectioned to a thickness of 6 μm, and slides were manufactured. Thereafter, staining was performed as below. The sample was first treated with xylene for 5 min three times, treated with 100% ethanol, 95% ethanol, 90% ethanol, and 70% ethanol, and DW in that order for 2 min, and washed with PBS for 5 min. After 0.3% H2O2 treatment, the sample was washed with PBS for 5 min twice. The sample was immersed in 0.01 M citrate buffer, heated, and washed with PBS-T (0.03% Tween 20). Thereafter, the sample was blocked (2% BSA & 2% goat serum in PBS) at room temperature for 30 min. The sample was stained with anti-CD68 antibody (1:200, ED1 clone, Abcam) at 4° C. overnight. The sample was washed with PBS-T for 5 min three times, and then treated with polymer-HRP anti-mouse envision kit (DAKO) at 4° C. for 1 h. The sample was washed with PBS-T three times, and then color-developed by the treatment with DAB substrate buffer and DAB chromogen 20. The stained tissue was treated with Mayer's hematoxylin (Sigma) for 1 min, and then treated with 70% ethanol, 90% ethanol, 95% ethanol, and 100% ethanol in that order for 2 min each twice. […]

RAW 264.7 cells = assay: Transwell migration assay of monocytes/macrophages with laminin 421; format: cell-based; details: 100 nM, 24 h, laminin 421 1 μg/ml
Protocol: The effect on immune cell migration and invasion was investigated using N3 IgG antibody as a representative among the antibodies constructed in Example 1 above. Specific experimental methods were as follows. Transwell (Corning, #3421-5 mm) was coated with gelatin (0.5 mg/ml), and then RAW 264.7 cells (1×10^5 cells/well) were seeded in the top chamber. Serum-free DMEM (500 μl) containing laminin 421 (1 μg/ml) was placed in the bottom chamber. The top chamber was treated with each antibody at 100 nM. After 24 h, immobilization with 70% methanol was carried out for 30 min, and then staining with 50% hematoxylin was carried out for 30 min. The non-migrating cells present on the upper part of the membrane were removed by cotton swabs, and then the membrane was taken and mounted on the slide. The migrating cells present on the bottom surface of the membrane were observed by a high-resolution microscope (FIG. 20A), and the cells were counted on the obtained images and plotted on the graph (FIG. 20B).

KRS = target: T1, KRS (Homo sapiens, UniProt Q15046); assay: Western blotting and immunoprecipitation of converted IgGs; format: binding; details: HCT116 cell lysate
T1 construct: endogenous in cells; host or cells: HCT116
T1 sequence (Q15046 whole entry): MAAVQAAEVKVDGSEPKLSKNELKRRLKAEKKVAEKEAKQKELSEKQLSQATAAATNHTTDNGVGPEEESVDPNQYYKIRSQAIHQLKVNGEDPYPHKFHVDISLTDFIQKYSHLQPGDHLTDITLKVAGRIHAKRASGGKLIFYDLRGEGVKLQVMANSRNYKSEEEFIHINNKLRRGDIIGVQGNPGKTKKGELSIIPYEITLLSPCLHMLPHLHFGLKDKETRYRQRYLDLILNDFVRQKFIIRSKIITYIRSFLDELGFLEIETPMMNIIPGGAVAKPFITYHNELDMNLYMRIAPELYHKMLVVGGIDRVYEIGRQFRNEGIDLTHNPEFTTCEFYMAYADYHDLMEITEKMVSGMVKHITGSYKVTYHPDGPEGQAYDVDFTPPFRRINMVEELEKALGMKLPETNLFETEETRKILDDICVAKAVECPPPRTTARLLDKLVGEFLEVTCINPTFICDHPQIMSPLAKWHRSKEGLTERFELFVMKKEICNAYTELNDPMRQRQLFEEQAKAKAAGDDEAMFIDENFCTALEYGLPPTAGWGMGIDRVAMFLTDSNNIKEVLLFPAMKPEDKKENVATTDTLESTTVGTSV

A549 cells = assay: MTT cytotoxicity assay; format: cell-based, human; details: 0, 50, 100, 500 nM, 24 h, serum-free media
Protocol: MTT assay was performed on N3 IgG as a representative. A549 cells were seeded in 96-well plates (5,000 cell/well) and incubated. The cells were washed with serum-free media, and then treated with human mock IgG and N3 IgG of 0, 50, 100, 500 nM (in serum-free media). After 24-h incubation, MTT solution was added with 50 μg/well, followed by incubation for 4 h. After MTT solution was removed, the wells were treated with 100 ul of DMSO, and then the absorbance was measured at 570 nm.

[2] = target: T2, extracellularly exposed KRS N-terminal region (Homo sapiens, UniProt Q15046); assay: Immunofluorescence staining of converted IgGs; format: cell-based; details: WT-KRS membrane localization induced by laminin treatment
T2 construct: expressed in transfected cells; host or cells: A549
T2 sequence (Q15046 whole entry): as above
Protocol: (§1) Immunofluorescence was performed to investigate whether the scFv clones selected in Example <1-5> actually bound to the KRS N-terminal region exposed on the cell membrane. In order to make a phenomenon in which KRS is exposed on the membrane, KRS-T52D mutant (active mutant) was used. […] After incubation for 24 h, the cells were incubated using serum-free media (RPMI 1640 media) at 37° C. for 1 h. Thereafter, the cells were treated with 10 μg/ml laminin (L2020; Sigma) and then incubated at 37° C. for 1 h.
(§2) The prepared samples were washed with PBS (4° C.), fixed by the treatment with 4% paraformaldehyde for 10 min, and then washed. The samples were blocked with CAS block for 10 min, and treated with the scFv and Myc antibodies for 2 h. Thereafter, the unbound antibodies were washed out, and incubated with secondary antibodies for 1 h in a dark room. DAPI staining was performed for 10 min before mounting.
(§3) To investigate whether the IgGs constructed in the present invention actually bound to the region of KRS exposed on the cell membrane, immunofluorescence was performed. Immunofluorescence staining was performed by the same method as described in Example <1-6> by using N3 IgG and N5 IgG as representatives.

[3] = target: T3, extracellularly exposed KRS N-terminal region (Homo sapiens, UniProt Q15046, T52D); assay: Immunofluorescence staining of converted IgGs; format: cell-based; details: T52D-KRS (active mutant, myc tagged KRS)
T3 construct: expressed in transfected cells; host or cells: A549
T3 sequence (Q15046 whole entry T52D): as the sequence (Q15046 whole entry) above, with T52D counted along it
Protocol: as §1, §2, §3

KRS 1-207 aa = target: T4, KRS 1-207 aa (Homo sapiens, UniProt Q15046); assay: SPR (Biacore 2000) binding of IgGs to immobilized KRS; details: immobilized KRS 185 RU, antibody 6.25-100 nM
T4 construct: to the antigen (KRS 1-207 aa)
T4 sequence (Q15046 1-207): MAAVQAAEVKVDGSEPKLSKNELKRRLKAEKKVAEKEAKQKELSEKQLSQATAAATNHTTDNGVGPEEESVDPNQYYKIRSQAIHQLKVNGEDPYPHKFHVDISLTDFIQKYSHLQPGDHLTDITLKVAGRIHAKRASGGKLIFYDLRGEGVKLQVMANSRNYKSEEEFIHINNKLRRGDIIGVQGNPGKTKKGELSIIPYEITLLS
Protocol: The quantitative binding ability of the purified antibody proteins (N3 IgG and N5 IgG) to the antigen (KRS 1-207 aa) were measured using Biacore 2000 SPR (surface plasmon resonance) (GE healthcare, US) biosensor. After KRS was immobilized on a sensor chip (CM5, GE healthcare, US), antibody proteins (6.25-100 nM), which were serially diluted with HES buffer solution (10 mM HEPES, pH 7.4, 150 mM NaCl, 3 mM EDTA, 0.005% surfactant P20), were allowed to flow at a rate of 30 μl/min for 3 min, and 1 M NaCl/20 mM NaOH was allowed to flow at a rate of 30 μl/min for 3 min, thereby inducing the dissociation of proteins bound to the antigen. Mock IgG was used as control. Specific experiment conditions are as follows:
Immobilized level: 185 RU
Antibody: N3 IgG and N5 IgG
Running buffer: HBS-N buffer
Regeneration: 2 M NaCl, 20 mM NaOH (flow 30 ul/min 1 min)
The affinity was obtained from the kinetic rate constants (ka and kd) and equilibrium dissociation constants (KD) by using BIA evaluation ver. 3.2 software. FIGS. 6A-6B show SPR graph results of N3 IgG and N5 IgG, respectively. It was confirmed from FIGS. 6A-6B and Table 3 that N3 IgG and N5 IgG of the present invention has high specific binding ability to the KRS N-terminal region.

B1: N3 IgG: IgG converted from N3 scFv; VH SEQ ID NO: 49, VL SEQ ID NO: 51; binds KRS N-terminal region (antibody, V domains shown)
VH: EVQLLESGGGLVQPGGSLRLSCAASGFTFSSYDMSWVRQAPGKGLEWVSAISYDNGNTYYADSVKGRFTISRDNSKNTLYLQMNSLRAEDTAVYYSARMALDFDYWGQGTLVTVSS
VL: QSVLTQPPSASGTPGQRVTISCTGSSSNIGSNYVTWYQQLPGTAPKLLIYDNSNRPSGVPDRFSGSKSGTSASLAISGLRSEDEADYYCASWDDSLSAYVFGGGTKLTVL
monocyte/macrophage infiltration into lung tissues (CD68 IHC) [1]: explicitly reduced | inhibition of LN421-dependent monocyte/macrophage migration (RAW 264.7 cells): effectively inhibited | KRS binding ability (western blotting and immunoprecipitation) (KRS): bound to KRS | cytotoxicity (MTT assay) (A549 cells): no cytotoxicity | binding to extracellularly exposed KRS N-terminal region (immunofluorescence) [2]: favorably bound specifically | binding to extracellularly exposed KRS N-terminal region (immunofluorescence) [3]: favorably bound | Kd (KRS 1-207 aa): 83.4 nM | ka (KRS 1-207 aa): 109000 M⁻¹ s⁻¹ | kd (KRS 1-207 aa): 0.009055 s⁻¹
